The results in this text go back to PMC10004744, “H-rGO-Pd NPs Nanozyme Enhanced Silver Deposition Strategy for Electrochemical Detection of Glypican-3”.

The target in this series is Glypican-3 (GPC3) (UniProt P51654 25-554). In words: electrochemical sandwich aptasensor (DPV silver stripping; EIS); GPC3 captured by GPC3 antibody on Au NPs@rGO/SPE; aptamer on H-rGO-Pd NPs; response 0.01-100 ug/mL, LOD 3.30 ng/mL (not a Kd); PBS 0.1 mol/L as electrolyte; probe in Tris-EDTA buffer; 5.0 umol/L GPC3Apt; response time 30 min; incubation temperature tested 4-37 C; pH not given in material. The note with it: protein: commercial; label: adsorbed on H-rGO-Pd NPs nanozyme (signal probe).
Sequence of Glypican-3 (GPC3) (P51654 25-554): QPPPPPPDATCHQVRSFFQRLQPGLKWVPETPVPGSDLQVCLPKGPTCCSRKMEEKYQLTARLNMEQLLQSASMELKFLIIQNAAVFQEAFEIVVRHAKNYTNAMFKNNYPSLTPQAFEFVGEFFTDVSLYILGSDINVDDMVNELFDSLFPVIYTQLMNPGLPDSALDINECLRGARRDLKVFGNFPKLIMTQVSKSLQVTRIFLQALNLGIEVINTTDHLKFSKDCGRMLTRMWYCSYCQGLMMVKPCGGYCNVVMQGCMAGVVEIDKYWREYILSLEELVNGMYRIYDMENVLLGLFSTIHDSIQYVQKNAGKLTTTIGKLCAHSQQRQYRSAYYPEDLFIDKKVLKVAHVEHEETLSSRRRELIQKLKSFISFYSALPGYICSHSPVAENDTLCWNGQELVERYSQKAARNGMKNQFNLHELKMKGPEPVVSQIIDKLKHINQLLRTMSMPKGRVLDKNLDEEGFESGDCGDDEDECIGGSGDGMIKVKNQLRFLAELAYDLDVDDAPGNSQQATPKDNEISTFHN

For TAACGCTGACCTTAGCTGGATTTTACATGTTCCA (ssDNA, 5'-NH2) [GPC3Apt], the binding result is “binds”.
